Measured values published in patent publication US6080542A, “Plant peptide transport gene” (priority 1997, dated 2000).
Where a SMILES comes first, the peptide text is derived from it. Where no end group is shown, it is not given here. [ ]: non-standard residue; d: D form. hCys = N[C@@H](CCS)C(=O)O; Eth = ethionine

Tests used:
A. thaliana seedlings = assay: Root elongation of seedlings exposed to toxic peptides; type: in vivo, Arabidopsis thaliana
Procedure: (§1) Thus, A. thaliana seeds and seedlings were exposed to Ethionine, Ala-Eth, Leu-Eth, Leu-fluorophenylalanine or oxalysine containing peptides, and the minimum inhibitory concentrations (MIC) were determined for each of the toxic compounds.
Approximately 15 A. thaliana seeds were placed in a row at one end of 10 cm plate containing 20 ml of Arabidopsis growth media (Kranz and Kirchheim 1987). The seeds were incubated 3-5 days in the light with the plate set in an upright position. When the roots were approximately 1-2 cm long, sterile paper filter disks were placed immediately in front of the root tips on the right and left side of the plate 2 cm from the edge of the plate. A line was drawn across the plate using the top of the disks as a guide marking zero growth. 5 μl of toxic amino acid analog, toxic peptide, or toxic peptide plus competitor was added to one disk while H2 O was place on the other disk. The plates were incubated for an additional 3-5 days. The average length of the roots was measured from the line and the results expressed as a percentage of control root growth.

PB1X-9B (pPTF4) = assay: Toxic peptide disk assay, mutant with plant gene ATPTR2A; type: cell-based, Saccharomyces cerevisiae
Procedure: (§2) Since ptr mutants are deficient in peptide transport, they are unable to take up toxic peptides. This inability renders such mutants resistant to the toxic effect of the peptides. In order to determine whether the polynucleotides of the present invention could restore toxic peptide sensitivity to ptr2 mutants, the sensitivity of plasmid-transformed cells was determined. Sensitivity to toxic amino acids and peptides was measured as described by Island, M. D. et al. (J. Bacteriol. 169:2132-2136 (1987)). Briefly, a filter disk containing 0.38 μmoles of the toxic compound was placed on a lawn containing 5×10^6 cells and the plate incubated at 30° C. for 1 to 2 days. Resulting halos were measured across their diameter. The toxic dipeptides Leu-Eth, Ala-Eth, Leu-F-Phe and Oxalysine were synthesized by standard solution phase techniques (Naider, F. et al., J. Biol. Chem. 249:9-20 (1974). The results of this experiment are shown in Table 2 (values are the mean of the diameters of the observed zone of inhibition in millimeters±standard error of the mean of at least two independent experiments).

PB1X-9B (pJP9) = assay: Toxic peptide disk assay, mutant with yeast peptide transport gene; type: cell-based, Saccharomyces cerevisiae; conditions: disk with 0.38 μmoles, lawn of 5×10^6 cells, 30° C., 1 to 2 days, mean ± standard error
Procedure: as §2

PB1X-9B(pJP2) = assay: Dipeptide utilization, L-alanyl-L-ethionine sensitivity and dileucine transport of secondary transformants; type: cell-based, Saccharomyces cerevisiae
Procedure: Plasmid pJP2 was then reintroduced into PB1X-9B. The resulting secondary yeast transformants were tested for the ability to use a variety of dipeptides as sources of amino acids and for sensitivity to the toxic dipeptide L-alanyl-L-ethionine. Thus, strains were grown in YEPG broth at 30° C. to a titer of 10^8 cells per ml. The cells were harvested by centrifugation, washed twice with sterile water and resuspended at 1.0×10^7 cells per ml. A 5-μl aliquot was applied to solid MM containing dipeptides and amino acids as required. Four types of solid media were routinely used in assessing dipeptide utilization: MM+L-leucyl-L-leucine-L-lysine+L-histidine, MM-L-lysI-L-lysine-L-leucine-L-histidine (SEQ ID NO:12), MM-L-lysl-L-leucine-L-histidine, and MM-L-histydyl-L-leucine-L-lysine. All dipeptides were present at a concentration of 80 μM, while amino acids and nucleotide bases were added as required at standard concentrations (Sherman, F. et al., In: Methods in Yeast Genetics, Cold Spring Harbor Laboratory, Clod Spring Harbor, N.Y. (1986)). The plates were incubated at 30° C. for 48 hours and then scored for growth.

A. thaliana seeds = assay: Seed germination with toxic peptides (minimum inhibitory concentration); type: in vivo, Arabidopsis thaliana; conditions: A. thaliana seeds
Procedure: as §1
To measure the minimum inhibitory concentration of the toxic peptides, 10 to 15 A. thaliara seeds were place on solid Arabidopsis growth media with decreasing concentrations of toxic peptide. The seeds were incubated for 4 days in the dark and then scored for germination.

S288C = assay: Toxic peptide disk assay, wild type; type: cell-based, Saccharomyces cerevisiae; conditions: disk with 0.38 μmoles, lawn of 5×10^6 cells, 30° C., 1 to 2 days, mean ± standard error
Procedure: as §2

Lys-Leu-Leu-Leu-Eth = molecular target: T1, Lys-Leu-Leu-Leu-Eth; assay: cell-based or functional assay
T1 peptide: KLLL-Eth

Lys-Leu-Leu-Ala-Eth = molecular target: T2, Lys-Leu-Leu-Ala-Eth; assay: cell-based or functional assay
T2 peptide: KLLA-Eth

Ala-Ala-Ala = molecular target: T3, Ala-Ala-Ala; assay: cell-based or functional assay
T3 peptide: AAA

Met-Met = molecular target: T4, Met-Met; assay: cell-based or functional assay
T4 peptide: MM

Ala-Ala = molecular target: T5, Ala-Ala; assay: cell-based or functional assay
T5 peptide: AA

L-alanyl-L-ethionine [1] = molecular target: L-alanyl-L-ethionine
Leu-Eth [2] = molecular target: Leu-Eth
L-alanyl-L-ethionine [3] = molecular target: L-alanyl-L-ethionine; remark: listed apart in the source
Leu-Eth [4] = molecular target: Leu-Eth; remark: listed apart in the source

CCSCC[C@H](NC(=O)[C@H](C)N)C(=O)O [Ala-Eth, L-alanyl-L-ethionine] (H-Ala-[hCys](Et)-OH)
amount that inhibits root elongation of seedlings (A. thaliana seedlings): 0.038 µmol
sensitivity or resistance to toxic compound (PB1X-9B (pPTF4)): restores sensitivity
diameter of zone of inhibition (PB1X-9B (pPTF4); disk with 0.38 μmoles, lawn of 5×10^6 cells, 30° C., 1 to 2 days, mean ± standard error): 35.0 ± 1.0 millimeters
diameter of zone of inhibition (PB1X-9B (pJP9)): 42.5 ± 2.5 millimeters
sensitivity to toxic dipeptide (PB1X-9B(pJP2)): sensitive
amount that inhibits germination of seeds (A. thaliana seeds): 0.038 µmol
diameter of zone of inhibition (S288C): 33.5 ± 2.5 millimeters

B1: ATPTR2Ap protein (other)
chain: MSSIEEQITKSDSDFIISEDQSYLSKEKKADGSATINQADEQSSTDELQKSMSTGVLVNGDLYPSPTEEELATLPSVCGTIPWKAFIIIIVELCERFAYYGLTVPFQNYMQFGPKDATPGALNLGETGADGLSNFFTFWCYVTPVGAALIADQFLGRYNTIVCSAVIYFIGILILTCTAIPSVIDAGKSMGGFVVSLIIIGLGTGGIKSNVSPLMAEQLPKIPPYVKTKKNGSKVIVDPVVTTSRAYMIFYWTINVGSLSVLATTSLESTKGFVYAYLLPLCVFVIPLIILAVSKTAFTSTLLPPVPSLFVLVKCSSLLLKTNLISKKLNHLALLLLERYVKDQWDDLFIDELKRALRACKTFLFYPIYWVCYGQMTNNLISQAGQMQTGNVSNDLFQAFDSIALIIFIPICDNIIYPLLRKYNIPFKPILRITLGFMFATASMIYAAVLQAKIYQRGPCYANFTDTCVSNDISVWIQIPAYVLIAFSEIFASITGLEFAFTKAPPSMKSIITALFLFTNAFGAILSICISSTAVNPKLTWMYTGIAVTAFIAGIMFWVCFHHYDAMEDEQNQLEFKRNDALTKKDVEKEVHDSYSMADESQYNLEKANC
diameter of the zone of inhibition, disk assay with 0.38 µmoles (Lys-Leu-Leu-Leu-Eth): 0 mm
diameter of the zone of inhibition, disk assay with 0.38 µmoles (Lys-Leu-Leu-Ala-Eth): 0 mm
reversal by a competitor peptide of the inhibition of A. thaliana root growth by Ala-Eth or Leu-Eth (Ala-Ala-Ala): 0 % of control root growth
reversal by a competitor peptide of the inhibition of A. thaliana root growth by Ala-Eth or Leu-Eth (Met-Met): 40 % of control root growth
reversal by a competitor peptide of the inhibition of A. thaliana root growth by Ala-Eth or Leu-Eth (Ala-Ala): 0 % of control root growth
inhibition of germination of A. thaliana seeds and of root elongation of seedlings (L-alanyl-L-ethionine [1]): 0.038 µmol
inhibition of germination of A. thaliana seeds and of root elongation of seedlings (Leu-Eth [2]): 0.038 µmol
diameter of the zone of inhibition, disk assay with 0.38 µmoles (Lys-Ala-Eth): 37.5 mm
diameter of the zone of inhibition, disk assay with 0.38 µmoles (Lys-Leu-Ala-Eth): 0 mm
diameter of the zone of inhibition, disk assay with 0.38 µmoles (L-alanyl-L-ethionine [3]): 35 mm
diameter of the zone of inhibition, disk assay with 0.38 µmoles (Leu-Eth [4]): 45 mm
diameter of the zone of inhibition, disk assay with 0.38 µmoles (Leu-F-Phe): 37 mm
diameter of the zone of inhibition, disk assay with 0.38 µmoles (Lys-Leu-Eth): 35 mm
diameter of the zone of inhibition, disk assay with 0.38 µmoles (Lys-Leu-Leu-Eth): 0 mm
